Assay results published in the nanobody polyreactivity screen of Harvey et al. (2022).

Test: yeast display, Sf9 membrane polyspecificity reagent, FACS + sequencing; frameworks hold sequencing errors
Outline: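 Using colony PCR, genes from sorted yeast display clones were amplified, then sequenced on MiSeq at 2 × 250 and filtered by CDR length. The clones had been stained with 10% biotinylated, detergent-solubilized Sf9 membrane reagent for 1 hour at 4 °C and sorted by FACS into low and high (top ~1%) gates on anti-HA and streptavidin fluorescence. Polyreactivity labels come from the gate of origin.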

| Sequence | polyreactivity (PSR sort gate) |
| --- | --- |
| QVQLVESGGGLVQAGGSLSFSCAASGNTFYRNAMGWYSQAPGKERELVAAITFSTVRTYYADSVKGRFTISRDNAKNTVYLQMNSLKPEDTAVYYCNKLYRGTWAKENGYWGQGTQVTVSS | high polyreactivity |
| QVQLVESGGGLVQAGGSLRLSCAASGRTFYGYAMGWYRQAPGKERELVAAITRSGGSTYYADSVKGRFTISRDNAKNTVYLQMNSLKPEDTAVYYCAAGGQARHDYWGQGTQVTVSS | low polyreactivity |
| QVQLVESGGGLVQAGGSLRLSCAASGSNFVWYVMGWYRQAPGKDRELVAAITWSAARTYYADSVKGRFTISRDNAKNTVYLQMNSLKPEDTAVYYCAADGYPLQLYNYWGQGTQVTVSS | low polyreactivity |
| QVQLVESGGGLVQAGGSLRLSCAASGSIFYRNAMGWYRQAPGKERELVASISASGGRTYYADSVKGRLTISRDNAKNTVYFQMYSLNREETAFYYCNKVSPVAYWYSWGINFDFWGQGTQVTVSS | high polyreactivity |
| QVQLVESGVCIVQAGGSLRLSCAASGFTFRENAMGWYRQAPGKERELVAAISKRGGTTYYADSVKGRFTSSRDYAKNTVILQTNSLKPEDTAVYYCATQYLIQNKYYSWGQGTQVTVSS | high polyreactivity |
| QVQLVEAGGGLVQAGGSLRLIFASSGSTLYLYVMVWYRQAPGKESELVDVISSSSGRTYYADSVKGRFTISRDNAKNSVYLQMNSLKPEDTAVYYCAADNYVGYHWYNYWGQGTQVTVSS | high polyreactivity |
| QVQLVESGGGLVQAGGSLRLSCAASGITFYLYAMGWYRQAPGKERELVAAISRIGGSTYYADSVKGRFTISRDNAKNTVYLQMNSLKPEDTAVYYCATYYGGSGYDYWGQGTQVTVSS | high polyreactivity |
| QVQLVESGGGLVQAGGRLRLSCAASGRIFPWYAMGWSRPAPGKERELVAAISWSGGRTYYADSVKGRFTISRDNAKNTVYLQMNSLKPEDTAVDYCNADKWRYPLSGWWKRYDYWGQGTQVTVSS | high polyreactivity |
| QVQLVESGGGLVQAGGSLRLSCAASGSTFGSYGMGGYRQAPGKERELVAGITSSGSTYYADSVKGRFTISRDNAKNTVYLQMNSLKPDDTAVYYCNARSGIDWYYDNDYWGQGTQVTVSS | low polyreactivity |
| QVQLVESGGGLVQAGGSLRLSCAASGRTFYAYAMGWYRQAPGKERELVAAITSGASTYYADSVKGRFTISRDNAKNTVYLQMFSLKPEDTAVYYCNAEYYEGYIGVPGSFWPYEYWGQGTQVTVSS | low polyreactivity |
| QVQLVESGGGLVQAGGSLRLSCASSGSIINRYAMGGYRQAPGKERELVAAITQSGGRTYYADSVKGRFTISRDNAKNTVYLQMNSLKPEDTAVYYCNAVRWYLYDYWGQGTQVTVSS | high polyreactivity |
| QVQLVESGGGLVQAGGSLRLSCAASGYPFGKYAMGWYRQAPGKERELVASIRSGGSTNYADSVKGRFTISRDNAKNTVYVQMNCLKPEDTAVYYCNTRYRYQYGYDYWWQGTQVTVSS | high polyreactivity |
| QVQLVESGGGLVQAGGSLRLSCAASGRIFSSNAMGWYRQAPGKARELVAAISTSGSTKYADSVKGRFTSSRDNAKNTVYLLMNSLKPEDTAVYYCAAKGYEYRYRYDYWGQGTQVTVSW | high polyreactivity |
| QVQLVESGGGLVQAGGSLRLSCAASGRTFGPYAMGWYRQAPGKEREMVAAIRFSGGSTYYADSVKGRFTISRDNAKNTVYLQMNSLKPEDTAVYYCNARLGSSKGRVEKYGSWGQGTQVTVSS | high polyreactivity |
| QVQLVESGGGLFQAGGSLRLSCAASGRTFKPNTMGWYRQAPGKERELVAAITWRGGSTYYADSVKGRFTISRDNAKNTVYLQMNSLKPEDTAVYYCASARVRTGTGMDYWGQVTQVTVSS | low polyreactivity |
| QVQLVESGGGLVQAGGSLRLSCAASGRIFAAYAMGWYRQAPGKERELVAAITRRGSTYYADSVKGRFTISRDNAKNTVYLQMNSLKPEDTAVYYCNKVPLFQYSTAWYDYWGQGTQVTVSS | high polyreactivity |

| Sequence | polyreactivity (PSR sort gate) |
| --- | --- |
| QVQLVESGGGLVQAGGSLRLSCAASGRTFWWYAMGWYRQAPGKEREFVAAISQRGTSTYYADSVKGRFTISRDNAKNTVYLQMNSLKPEDTAVYYCAAPLYRRWEVTYDYWGQGTQVTVSS | high polyreactivity |
| QVQLVESGGGLVQAGCSLRLSCAASGSIFTSYAMGWYRQAPGKERELVAAINRSSGTTYYAHSVKGRFTISRDTAKNTVYLQMNSLKREDTAVYYCAKEYGIYTDTPYYYWGQGTQVTVSS | low polyreactivity |
| QVQLVESGGGLVQAGGSLRLSCAASGYTFRYNALGWYRQAPGKERELVAAISSSGRTYYADSVKGRFTSSRDNAKNTVDLQMNSLKPDATAVYYCNAGPYAGARYRWGYDYWGQGTQVTVSS | high polyreactivity |
| QVQLVESGGGLVQAGGSLRLSCAASGSTFSIYAMGWYRKAPGKERELVAAISTDGGSTNYADSVKGRFTISRDNAKNTVYLQMNILKPEDTAVYYCAADTYWYLSPYDYWGQGTQVTVSS | low polyreactivity |
| QVQLVESGGGLVQAGGSLRLSCAASGRIFGLNGMGWSRQAPGKERELVARISSVGSTYSADSVKGRFTISRDNAKNTVDLQKNSLTPEDTSVYYCNRRRSRYLPTPDRIVEYDYWGQGTQVTVSS | low polyreactivity |
| QVQLVESGGGLLQAGGSLRLSCAASGRTFKSYTMGWYRQAPGKERELVAAIRASGGITYYADSVKGRFTISRDNAKNTVYLQMNSLKPEDTAVYYCAARPRTRYDYWGQGTQVTVSS | high polyreactivity |
| HVQLVESGVGLVQAAGSLRLSCAASGLIFRWYAMGWYRQAPVKERELFAAISRGGSTNYADSVKGRFTISRDNAKNTVYLQMNSLKPEDTAVYYCATVYSVRYGGRYYYAFGLYDYWGQGTQVTVSS | high polyreactivity |
| QVQLVESGGGLVQAGGSLRLSCAASGFTFSRNTMGWYSQAPGKERELVARISASGGSTYFADSVKGRITISRDNAKNTVYLQMTSLKQEATAVYYCAAVYRRYGGSRYDYWGQGTQVTVSS | high polyreactivity |
| QVQLVESGGGLVQAGGSLRLSCAATGTTFHYYAMGWYRQAPGKERELVASITRSGGRTYYADSVKGRFTISRDNAKNTVYLQMNSLKPEDTAVYYCAARSYRRTSYDYPSNPNYEYYYWGQGTQVTVSS | high polyreactivity |
| QVQLVESGGGLVQAGGSLRLSCAASGSSFVYNVMGWYRQAPGKERELVAAIRWRGGSTYADSVKGRFTISRDNAKNTVYLQMNSLKPEDTAVYYCAAGIPRYWYAGHYDYWGQGSQVTVSS | low polyreactivity |
| QVQLVESGGGLVQAGGSLRLSCAASGRIFVNYAMGWYRQAPGKERELDAAITSDGSTSYADSVKGRFTISRDNAKNTVYLQMNSLKPEDTAVYYCAKDFFEHSPVSHTYSSSKYDYWGQGTQVTVSS | low polyreactivity |
| QVQLVESGGGLVQAGGSLRLSCPASGSICRYYAMGWYRQAPGKERELVAVITRGGSTYYADSVKGRFTISRDNAKNTVYLQMNSLKPEDTAVYYCAADYWPAGLDRGYWGQGTQVTLSS | low polyreactivity |
| QVQLVESCGGLVQAGGSLRLSCAASGSTFASYAMGWYRQAPGKEREFVAAISRSGGSTYYADSVKGRFTISRDNAKNTVYLQMNSLKPEDTAVYYCAARSPSADEYYYWGQGTQVTVSS | low polyreactivity |
| QVQLVESGGGLVQAGGSLRLSCAASGRILASYAMGWYRQAPGKERELVAAIRYRGSTSYADSVKGRFTISRDNANNTVYLQMNSLKPEDTAVYYCNAGLEYYYWGYTWEFDYWGQGTQVTVSS | low polyreactivity |
| QVQLVESGGGLVQAGGSLRLSCAASGGILTKYAMGWYRQAPGKEREFVAAISWRGGTTYYADSVKGRFTISRDNAKNTVYLQMNSLKPEDSAVYYCAADILWYFGQEYDYWGKGTQVTVSS | low polyreactivity |
